Where “and” joins values, the source holds several entries; their conditions need not be identical. Identical values can stand only once. Like-named read-outs stand apart in the source and are kept apart here.
Legend:
[1] = tested on: luciferase reporter gene in HEK293 cells; test: Transcriptional regulation assay (split transcription factor), luciferase reporter; type: cell-based, human; details: for EC50: read-out: EC50; for max fold change: firefly luciferase
Description: The iDimerize regulated transcription system (Takara) was used to test the ability of PRSIM-based CIDs to regulate gene expression. […] The DBD and AD are separately fused to the two protein components of a CID such that, only in the presence of the small molecule inducer, the AD is brought into close proximity to the DBD, recruiting the transcription machinery to a promoter harbouring the DBD recognition sites. The iDimerize regulated transcription system (Takara) provides two vectors, pHet-Act1-2 and pZFHD1-Luciferase. The pHet-Act1-2 vector encodes two fusion proteins that represent a positive control: one is a fusion between FRB (T82L mutant; DmrC) and an activation domain (AD) from human p65 (SEQ ID NO: 42); the other is a fusion protein comprised of a DNA binding domain (ZFHD1) (SEQ ID NO: 43) fused to three tandem copies of FKBP12 (DmrA). These sequences are preceded by a CMV promoter and separated by an internal ribosome entry site (IRES). The ZFHD1 vector encodes luciferase preceded by an inducible promoter consisting of 12 copies of the recognition sequence of the ZFHD1 DBD upstream of a minimal IL-2 promoter. Binding of the DBD to its recognition sequence and recruitment of the transcriptional machinery by the AD initiates transcription of the luciferase reporter gene. The DNA sequence encoding HCV NS3/4A PR (S139A) was purchased as a DNA string from GeneArt and cloned into the pHet-Act1-2 vector as either an N-terminal fusion partner to the activation domain (SEQ ID NO: 44) (replacing FRB) or as a C-terminal fusion partner to the DNA binding domain (SEQ ID NO: 45) (replacing FKBP12) with flexible linkers (TGGGGSGGGGS (SEQ ID NO: 185) and SA, respectively) between the fusion partners. Subsequently, sequences encoding one copy of a panel of 12 PRSIM molecules (Table 2) were purchased as DNA strings from GeneArt and were cloned using Gibson assembly into the HCV NS3/4A PR (S139A)-containing pHetAct1-2 constructs described above, as a fusion partner to either the DBD (SEQ ID NOS: 46-56) or AD (SEQ ID NOS: 57-67), respectively. An equivalent construct was generated to replace the three copies of FKBP12 in pHet-Act1-2 with a single copy of FKBP12. The sequence of the constructs encoding both activation domain and DNA-binding domain fusion proteins was confirmed by Sanger sequencing of the entire coding region.
Sequences encoding the three HCV NS3/4A PR (S139A) mutants (Table 6) were purchased as DNA strings from GeneArt and were cloned using Gibson assembly into the pHetAct1-2 HCV NS3/4A PR (S139A)-PRSIM_23 (3 tandem copy) construct described above as a fusion partner to the AD (SEQ ID NOs: 211-216).
All transcriptional regulation assays were performed in adherent HEK293 cells cultured in 384-well plates. Cells enzymatically dissociated from a tissue culture flask were counted and plated at 7.5×10^3 cells/well in a 384-well plate. The plates were incubated overnight at 37° C. with 5% CO2 to allow the cells to adhere. On day 2, the cells were co-transfected with a pHet-Act1-2 plasmid (containing the FRB:FKBP12 control fusion proteins (Clontech) or the HCV NS3/4A PR (S139A):PRSIM fusion proteins) and a pZFHD1 plasmid (encoding either luciferase (Clontech) or NanoLuc-PEST (as described above)) using Lipofectamine LTX (ThermoFisher). On day 3, wells were treated with different concentrations of either A/C heterodimeriser (for the FRB:FKBP12 control), simeprevir or with vehicle control, and 24 hours later luminescence was quantified with an Envision plate reader immediately following addition of SteadyGlo luciferase substrate (Promega) or Nano-Glo Vivazine luciferase substrate (Promega). Alternatively, reverse transfections were carried out on Day 1, addition of dimeriser on Day 2 and luminescence quantified 24 hours later on Day 3.
Luminescence readings were converted into fold-change by dividing the signal in the presence of simeprevir by that in the absence of simeprevir.

HCV NS3/4A PR (S139A) = HCV NS3/4A PR (S139A) (Hepatitis C virus subtype 1a, UniProt A8DG50, A1066T/I1043Q/I1044E/L1039E/L1040E/L1047Q/S1165A, form not given); test: Biacore 8K binding kinetics of PRSIM binding molecules
Description: The scFv and Tn3 PRSIM binding molecules were covalently immobilised to a CM5 chip surface using standard amine coupling techniques at a concentration of 1 μg/ml in 10 mM sodium acetate pH 4.5.
The HCV NS3/4A PR (S139A), or BSA control, was diluted 1:4 (1.25-20 nM)±10 nM simeprevir in 10 mM Hepes pH 7.4, 150 mM NaCl, 0.05% Surfactant P20, 0.01% DMSO, ensuring constant simeprevir and DMSO concentration. The samples were flowed over the chip at 50 μl/min using single cycle kinetics, with 120 sec association and 600 sec dissociation. The chip surface was regenerated with two 20 sec pulses of 10 mM Glycine-HCl pH 3.0. The final sensorgrams were analysed using the Biacore 8K Evaluation Software and the affinity constant KD was determined using a 1:1 binding model. The same method was used for measuring the affinity of the HCV NS3/4A PR mutants for PRSIM_23 with minor deviations. The mutants were diluted 1:4 (2.5-40 nM)±simeprevir in 10 mM Hepes pH 7.4, 150 mM NaCl, 0.05% Surfactant P20, 0.08% DMSO, ensuring constant simeprevir and DMSO concentration. The samples were flowed over the chip at 50 μl/min using single cycle kinetics, with 180 sec association and 600 sec dissociation.

[2] = PRSIM fused to AD, one copy, simeprevir dose-response
[3] = PRSIM fused to DBD, one copy, simeprevir dose-response

Row | Molecule | Max fold change ([1]; PRSIM fused to AD, one copy) | EC50 [1, 2] | Max fold change ([1]; PRSIM fused to DBD, one copy) | EC50 [1, 3] | Kd (HCV NS3/4A PR (S139A); 10 nM simeprevir present) | Rmax (HCV NS3/4A PR (S139A); 10 nM simeprevir present) | ka (HCV NS3/4A PR (S139A); 10 nM simeprevir present) | kd (HCV NS3/4A PR (S139A); 10 nM simeprevir present) | fold increase in luciferase expression ([1]; direct comparison of DBD-PRSIM constructs with FRB:FKBP12:rapalog positive control) | max fold change ([1]; one copy of PRSIM_23 fused to DBD) | max fold change ([1]; three tandem PRSIM_23 fused to DBD) | max fold change ([1]; two tandem PRSIM_23 fused to DBD) | EC50 ([1]; fusion orientation not stated) | Kd (HCV NS3/4A PR (S139A); ‘WT’ (S139A), 20 nM simeprevir) | Rmax (HCV NS3/4A PR (S139A); ‘WT’ (S139A), 20 nM simeprevir) | ka (HCV NS3/4A PR (S139A); ‘WT’ (S139A), 20 nM simeprevir) | kd (HCV NS3/4A PR (S139A); ‘WT’ (S139A), 20 nM simeprevir)
1 | PRSIM_75: scFv PRSIM binding molecule, SEQ ID NO: 15 (protein, PRSIM_75) scFv: EVQLVQSGAEVKKPGSSVKVSCKASGGSFNSYTLDWVRQAPGQGLEWMGGIIPVFGSPNYGQKFQGRVTITADESTSTAYMELSSLKSDDTAVYYCARGLVYQPLDSWGRGTLVTVSSGGGGSGGGGSGGGGSAQAVLTQPSSASGTPGQRVTISCSGSSSNIGSYTVNWYQQFPGTAPKLLIYSNTQRPSGVPDRFSGSKSGTSASLAISGLQSEDEADYYCAAWDDSLNGWVFGGGTKVTVL | 40.67 | 2.17 nM | 9.4 | 2.67 nM | 0.3 nM | 88.8 RUs | 9.09e+06 M⁻¹ s⁻¹ | 0.00267 s⁻¹ | – | – | – | – | – | – | – | – | –
2 | PRSIM_04: scFv PRSIM binding molecule, SEQ ID NO: 11 (protein, PRSIM_04) scFv: QVQLVQSGAEVKKPGSSVKVSCKASGGTFSSYAISWVRQAPGQGLEWMGGIIPIFGTANYAQKFQGRVTITADESTSTAYMELSSLRSEDTAVYYCARGMAHFYQFDLWGQGTLVTVSSGGGGSGGGGSGGGGSAQSVLTQPPSASGTPGQRVTISCSGSSSNIGSNTVNWYQQLPGTAPKLLIYSNNQRPSGVPDRFSGSKSGTSASLAISGLQSEDEADYYCAAGDHDHEHVVFGGGTKLTVL | 6.9 | 159000 nM | 1.364 | 6.55 nM | 11.2 nM | 65.9 RUs | 1.74e+07 M⁻¹ s⁻¹ | 0.195 s⁻¹ | – | – | – | – | – | – | – | – | –
3 | PRSIM_72: scFv PRSIM binding molecule, SEQ ID NO: 14 (protein, PRSIM_72) scFv: QVQLVQSGAEVKKPGSSVKVSCKASGGTFSSYAISWVRQAPGQGLEWMGGIIPIFGTANYAQKFQGRVTITADESTSTAYMELSSLRSEDTAVYYCARGMAHFYQFDLWGQGTLVTVSSGGGGSGGGGSGGGGSAQSVLTQPPSASGTPGQRVTISCSGSSSNIGSNTVNWYQQLPGTAPKLLIYSNNQRPSGVPDRFSGSKSGTSASLAISGLQSEDEADYYCAAGDHDHEHVVFGGGTKLTVL | 2.2 | 4.84 nM | 1.4 | 33 nM | 1 nM | 33.4 RUs | 1.18e+06 M⁻¹ s⁻¹ | 0.00118 s⁻¹ | – | – | – | – | – | – | – | – | –
4 | PRSIM_23: Tn3 protein specific for HCV NS3/4A PR (S139A):simeprevir complex, SEQ ID NO: 5 (protein, PRSIM_23) RLDAPSQIEVKDVTDTTALITWVDPRYDDIWWFELTYGIKDVPGDRTTIKLYLNDPYYSIGNLKPDTEYEVSLISYTGDSYSRSGSNPAKITFKTGL | 106 and 106.67 | 2.82 nM | 88 and 88.8 | 2.47 nM | 6.3 nM | 284 RUs | 5.03e+06 M⁻¹ s⁻¹ | 0.0318 s⁻¹ | 100 fold | 364.5 | 4862 fold | 2436 | 2 nM | 5.4 nM | 215 RUs | 5.59e+09 M⁻¹ s⁻¹ | 31 s⁻¹

From patent US20220380801A1, “TRIPARTITE SYSTEMS FOR PROTEIN DIMERIZATION AND METHODS OF USE” (priority 2019, published 2022)
